B1: SETD8 (parent)
chain: KKAQGKTQQNRKLTDFYPVRRSSR
B2: ANKRD40 (parent)
chain: YQELLRVCCCELGVNPDQVEKIRK

Variants of: B1
Experiment: protein stability index of a GFP-peptide fusion (GPS, HEK-293T) (PSI 1-6); higher = more stable
Conditions: c terminus: a fixed tail appended
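Note: lentivirally expressed fusions sorted by FACS into six bins by GFP to DsRed ratio, PSI derived from sequencing read proportions per bin multiplied by bin number.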

Protein stability index of substitutions, site by site:
Y17: D 4.52; W 1.41; T 2.06; C 3.58; E 3.39; F 2.72; P 5.8; K 4.5; Q 4.09; M 3.05; N 3.09
D15: S 3.12; L 2.87; N 2.92; P 3.1; Y 2.77; F 2.74; C 2.52; M 2.43; E 4.29; G 3.23; T 3.5; V 2.72; Q 2.36; W 4.09; H 2.42; A 2.85
V19: A 4.57; C 3.26; Q 3.49; Y 3.35; W 2.09; T 2.72; M 3.01; G 4.08; H 3.63; P 2.88; F 2.42; N 3.29; E 3.84; D 3.32; L 3.11; K 2.02; R 4.2; I 3.13
K1: Q 1.99; H 1.54; I 4.17; T 2.62; F 2.11; W 2.09; R 2.24; M 2.54; L 4.04; E 1.97; S 2.88; C 1.22; G 1.81; V 2.73; N 2.13
L13: N 3.26; C 4.07; G 3.42; D 4.69; Q 3.79; P 3.64; E 2.77; Y 3.47; W 4.33; S 2.79; V 2.79; H 3.83; T 3.51; F 3.52; A 2.67; R 5.53; K 5.04
N10: L 2.39; C 3.63; I 3.4; G 1.42; D 4.38; Y 3.04; M 2.39; R 2.74; A 1.64; P 2.77; H 3.49; T 2.17
T14: E 4.32; V 3.67; G 2.68; M 1.79; W 3.4; S 2.72; R 3.11; A 3.99; Y 2.65; Q 3.33; P 2.4; N 3.49; D 4.21; I 2.63; H 3.1; L 3.72
Q8: C 3.34; P 2.94; L 2.41; D 3.23; M 1.89; E 1.69; Y 2.02; V 3.2; S 2.69; N 2.89; R 2.39; W 3.29; F 3.67; A 2.45
P18: M 3.82; D 3.38; Y 2.51; L 3.36; N 1.86; C 2.47; A 3.16; Q 1.74; F 2.61; W 3.18; I 2.66; T 3.77; R 2.54
G5: V 2.65; L 2.77; I 1.68; A 1.87; R 1.44; Y 2.92; N 2.53; E 2.89; D 2.89; H 1.83
A3: V 3.41; I 2.84; K 2.72; N 3.12; F 2.93; D 3.79; L 3.96; W 2.33; Y 2.73; T 2.43; S 3.47; G 3.27; R 3.17; Q 2.4
R21: C 2.23; W 2.57; K 2.66; S 3.25; M 3.63; V 3; N 3.2; P 2.7; A 2.52; I 3.33; T 2.23; E 3.17; G 2.9
T7: H 2.88; L 3.08; D 3.32; N 3.33; E 2.9; Q 2.66; M 2.41; F 1.95; W 2.88; S 2.26
Q4: R 1.99; I 3.18; Y 2.18; E 1.68; T 1.87; K 3.35; D 4.69; L 3.69; V 3.42; C 1.64; G 2.22; S 1.13; H 2.73
S23: Y 3.04; H 2.7; F 3.54; N 2.66; L 4.44; T 2.23; P 2.65; E 3.5; M 3.18; R 2.16; D 3.09; G 1.83; A 3.62
Q9: E 3.12; K 3.66; S 2.36; Y 2.92; R 2.67; H 4.29; L 2.65; A 3.26; M 2.25; P 1.78; C 3.93; D 2.83
K12: L 3.41; Y 3; D 2.98; P 2.97; M 2.55; H 1.53; V 2.32; T 2.4; R 1.86; G 2.76; F 1.93; E 3.35; N 2.81; S 2.64
S22: Y 3.06; Q 2.37; P 2.89; A 2.92; G 2.42; T 2.63; H 1.38; L 2.02; M 3.38
K6: I 2.09; M 1.62; H 1.57; S 1.73; T 3.58; P 2.06; V 2.25; N 2.82; F 2.16; C 3.03; W 2.33; D 2.54; A 3.18
K2: G 3.04; D 2.65; P 2.13; I 3.63; L 1.57; N 2.56; Y 2.43; S 2.12; Q 1.83; M 2.54; R 2.03; F 1.97; T 3.1; W 3.07
F16: M 3.81; D 2.58; T 3.17; N 4.28; A 2.54; G 2.74; H 2.33; I 2.99; P 3.07; C 2.71; E 4.51; Y 3.29; S 3.07; Q 1.76
R11: Y 2.94; N 2.86; H 3.68; W 2.76; P 2.61; D 3.45; Q 2.71; E 2.15; V 1.86; A 1.6; S 2.85; T 2.19; I 2.45; G 1.5; L 2.43
R24: N 2.76; M 3.16; P 3.87; Q 1.06; L 2.08; H 2.54; S 3.83; A 2.12; C 3.61; T 2.75
R20: D 3.66; M 2.94; K 1.93; T 1.92; C 2.78; G 3.43; L 2.32; N 2.83; P 4.13; V 3.67; W 3.22; F 2.63; Y 2.25

Variants of: B2
Experiment: as above
Conditions: c terminus: a fixed tail appended

Protein stability index: each site, then its substitutions
Y1: I 1.78; D 3.49; N 3.55; S 2.65; L 1.51; K 1.96; A 2.96; C 1.95; Q 3.28; M 2.29; R 2.16; E 3.69; F 1.99; P 1.6; H 3.27

Source: the supplement of paper PMC10567573
